For this assay, the target named is Native Trypsin (abcam). Description: cell-based or functional assay.

B1: Trypsin 1/Trypsin 2-Dual-L4-Ab5 (antibody, part only; not given: light chain variable domain, V domains shown, part only)
VH: QVQLVQSGAEVKKPGASVKVSCKASGYTFTDYAISWVRQAPGQGLEWMGWISASTADTNYAQKLQGRVTMTTDTSTSTAYMELRSLRSDDTAVYYCARQDEVVGKMTYYIGTDVWGQGTTVTVSS
With B1, the IC50 Against 0.25 nM Native Trypsin was determined as 4.8 nM.

For the origin of these results see patent US20260274991A1.
